Changes are numbered by the printed parent chain.
Assays:
[1] = biological target: CD22 on the cell membrane of CD22-positive cell lines (Raji, REH, CA46) (UniProt P20273); assay: FACS on Raji cells
[2] = biological target: CD22 on the cell membrane of CD22-positive cell lines (Raji, REH, CA46) (UniProt P20273); assay: FACS on REH cells; ambiguous fit, Top printed as (very wide)
[3] = biological target: CD22 on the cell membrane of CD22-positive cell lines (Raji, REH, CA46) (UniProt P20273); assay: FACS on CA46 cells; ambiguous fit, Top printed as (very wide)
[4] = biological target: Biotinylated Human Siglec-2/CD22 Protein, Fc, Avitag (ACROBiosystems, SI2-H82F8) (human) (UniProt P20273); assay: ELISA, plate coated with CD22-Fc antigen; fit of a non-binding control (R2 0.1733), not meaningful
[5] = biological target: T1, CD22 on the cell membrane of CD22-positive cell lines (Raji, REH, CA46) (UniProt P20273 20-847, limits assumed); assay: FACS on REH cells
T1 construct: whole, on cells; Raji and CA46: relatively high expression of CD22; REH: relatively medium expression; also called CD22 on cell membrane
Procedure: (§1) Raji cells (having a relatively high expression of CD22), CA46 cells (having a relatively high expression of CD22), and REH cells (having a relatively medium expression of CD22) were selected, and the cell binding ability of the antibodies was evaluated by curves of mean fluorescence intensity versus concentration obtained through FACS.

[6] = biological target: T1, CD22 on the cell membrane of …; assay: FACS on Raji cells
Procedure: as §1

[7] = biological target: T1, CD22 on the cell membrane of …; assay: FACS on CA46 cells
Procedure: as §1

[8] = biological target: T2, Biotinylated Human Siglec-2/CD22 Protein, Fc, Avitag (ACROBiosystems, SI2-H82F8) (human, UniProt P20273 20-687, biotinylated (Avitag)); assay: ELISA, plate coated with CD22-Fc antigen, anti-human Fd-HRP
T2 construct: Bought reagent; also called CD22 antigen; CD22-Fc-biotinylated antigen; not shown: Fc tag of the bought protein; Avitag
Procedure: ELISA plates were coated with 200 ng/mL CD22 antigen (Biotinylated Human Siglec-2/CD22 Protein, Fc, Avitag™, ACROBiosystems (ARCO)) at 100 μl per well, at 4° C. overnight. Next day, the plates were washed with PBST, then blocked by the added blocking buffer (PBST+3% milk) at 37° C. for 1-2 hours, and then washed again with PBST.
After incubation, the plates were washed with PBST. 100 μl of 1:10000 diluted secondary antibody (Mouse anti-human IgG Fd secondary antibody, HRP; REF: SA5-10190, Invitrogen, USA) was added to each well of the ELISA plates which were then incubated at 37° C. for 1 hour. Thereafter, the plates were washed with PBST.
100 μl of TMB solution (TMB Single-Component Substrate solution, Cat #PR1200, Beijing Solarbio Science & Technology Co., Ltd.) was added to each well of the plates which were then incubated at room temperature for 15 minutes. Then 50 μl of stop buffer (ELISA stop buffer (10×), Cat #C1058, Beijing Solarbio Science & Technology Co., Ltd.) was added thereto, and the plates were shaken. Absorbance values at 450 nm were detected.

[9] = biological target: T2, Biotinylated Human Siglec-2/CD22 …; assay: SPR (Biacore 8K), CD22-Fc-biotin on SA chip, antibody as analyte, 1:1 binding model
Procedure: Following reagents and materials were mainly used: [0066] Antigen to be immobilized: CD22-Fc-biotinylated antigen: ACROBiosystems (ARCO)) SI2-H82F8; [0067] Antibodies to be tested: Anti-CD22 mAbs; [0068] Chip SA; [0069] Immobilization buffer: (1) 1 M NaCl/50 mM NaOH; [0070] (2) 1 M NaCl/50 mM NaOH/50% isopropanol; [0071] Running buffer: 1×HBS-EP buffer; [0072] Regeneration buffer: Glycine, pH 1.5.
Experimental steps were as follows: [0074] 1) A sensor chip SA was taken and its surface was cleaned with ultrapure water; and after dried under nitrogen, was inserted into the slot. The immobilization buffers (1) and (2) were added to the columns A1 and A2 in a 96 well plate, and 3.85 nM CD22-Fc-biotinylated antigen were added at 200 μL per well into corresponding wells in column A3, respectively. The program was set to immobilize the antigen, and the immobilization was stopped when delta RU of about 70 RU was achieved. [0075] 2) Program “binding test” was set, including association time of 250 s and dissociation time of 600 s, and a test was performed using HA22 mAb, a dissociation degree of 4-5% was shown. [0076] 3) The HA22 mAb was diluted to 1000 nM and subsequently to 100 nM, and further 2-fold diluted starting from 100 nM for 8 times, at a final volume of about 250 μL per well. The program was set up to detect the binding capacity of that antibody No. 1 to the antigen, with association time of 250 s and dissociation time of 600 s. […] [0077] 4) All the antibodies, i.e., mAb-1 to mAb-6, were diluted to 1000 nM and subsequently to 100 nM, and further 2-fold diluted starting from 100 nM for 8 times, at a final volume of about 250 μL per well. The same program as that in step 3 was set up to detect affinity in batches. Results were analyzed using Biacore 8K evaluation.

[10] = biological target: T1, CD22 on the cell membrane of …; assay: FACS on CA46 cells; ambiguous fit, Top printed as (very wide)
Procedure: as §1

Question: With Isotype control (antibody) as the molecule, how does the EC50 [1] read?
Answer: 32.6 µg/mL

Question: What about the EC50 [2] of the same molecule?
Answer: 8250 µg/mL

Question: What about the EC50 [3] of the same molecule?
Answer: 4590 µg/mL

Question: What about the EC50 [4] of the same molecule?
Answer: 0.154 ng/mL

B1: HA22 mAb (antibody, human IgG1, kappa, V domains shown)
VH: EVQLVESGGGLVKPGGSLKLSCAASGFAFSIYDMSWVRQTPEKCLEWVAYISSGGGTTYYPDTVKGRFTISRDNAKNTLYLQMSSLKSEDTAMYYCARHSGYGTHWGVLFAYWGQGTLVTVSA
VL: DIQMTQTTSSLSASLGDRVTISCRASQDISNYLNWYQQKPDGTVKLLIYYTSILHSGVPSRFSGSGSGTDYSLTISNLEQEDFATYFCQQGNTLPWTFGCGTKLEIKR
notes: also called positive antibody HA22 mAb
Question: Which EC50 [5] does the source give for B1 here?
Answer: 0.172 µg/mL

Question: And the EC50 [6]?
Answer: 0.152 µg/mL

Question: What about the EC50 [7] of the same molecule?
Answer: 0.221 µg/mL

Question: What about the EC50 [8] of the same molecule?
Answer: 0.0203 µg/mL

Question: And the Kd [9]?
Answer: 0.242 nM

Question: What about the koff [9] of the same molecule?
Answer: 8.93e-05 s⁻¹

Question: And the kon [9]?
Answer: 370000 M⁻¹ s⁻¹

B2: mAb-3 (antibody, human IgG1, kappa, V domains shown)
VH: B1 VH with K19R, T40A, E42G, T63S, D73E, T78S, S84N, L118M, A123S
VL: DIQMTQSTSTLSASVGDRVTITCRASQDISNYLNWYQQRPDGSVKLLIYYTSILHSGVPSRFSGSGSGTDYTLTISSLQDEDFATYFCQQGNTLPWTFGCGTKVEIKR
notes: Humanized IgG1/kappa antibody; also called V1 HC + V2 LC
Question: For B2, which EC50 [7] is on record?
Answer: 1.61 µg/mL

Question: What about the EC50 [8] of the same molecule?
Answer: 0.0139 µg/mL

Question: What about the Kd [9] of the same molecule?
Answer: 0.713 nM

Question: What about the koff [9] of the same molecule?
Answer: 0.000404 s⁻¹

Question: And the kon [9]?
Answer: 567000 M⁻¹ s⁻¹

B3: mAb-1 (antibody, human IgG1, kappa, V domains shown)
VH: B1 VH with K19R, T63S, D73E, T78S, S84N, L118M, A123S
VL: B1 VL
notes: Reconstructed IgG1/kappa antibody, humanized heavy chain with HA22 light chain; also called V2 HC + HA22 LC
Question: Which results are given for B3?
Answer: EC50 [5]: 0.812 µg/mL; EC50 [6]: 0.152 µg/mL; EC50 [7]: 0.521 µg/mL; EC50 [8]: 0.0154 µg/mL; Kd [9]: 0.604 nM; koff [9]: 0.000262 s⁻¹; kon [9]: 434000 M⁻¹ s⁻¹

B4: mAb-2 (antibody, human IgG1, kappa, V domains shown)
VH: B1 VH with K19R, T63S, D73E, T78S, S84N, L118M, A123S
VL: B2 VL
notes: Humanized IgG1/kappa antibody; also called V2 HC + V2 LC
Question: B4 was tested. Which EC50 [6] did it give?
Answer: 0.276 µg/mL

Question: What about the EC50 [7] of the same molecule?
Answer: 0.23 µg/mL

Question: And the EC50 [8]?
Answer: 0.00906 µg/mL

Question: And the Kd [9]?
Answer: 0.47 nM

Question: And the koff [9]?
Answer: 0.000177 s⁻¹

Question: What about the kon [9] of the same molecule?
Answer: 376000 M⁻¹ s⁻¹

B5: mAb-5 (antibody, human IgG1, kappa, V domains shown)
VH: EVQLVESGGGLVKPGGSLRLSCAASGFAFSIYDMSWIRQAPGKCLEWVAYISSGGGTTYYPGSVKGRFTISRENAKNSLYLQMNSLRSEDTAVYYCARHSGYGTHWGVLFAYWGQGTMVTVSS
VL: B2 VL with T8P, Y36F, D41G, G42Q, V44P, K45R, D80P, F87Y
notes: Humanized IgG1/kappa antibody; also called V5 HC + V4 LC
Question: Which EC50 [8] does the source give for B5 here?
Answer: 0.0163 µg/mL

Question: What about the EC50 [10] of the same molecule?
Answer: ~20.2 mg/mL

Question: What about the Kd [9] of the same molecule?
Answer: 0.382 nM

Question: What about the koff [9] of the same molecule?
Answer: 0.000411 s⁻¹

Question: What about the kon [9] of the same molecule?
Answer: 1.08e+06 M⁻¹ s⁻¹

B6: mAb-4 (antibody, human IgG1, kappa, V domains shown)
VH: B5 VH with I37V, G62D, R87K, V93M
VL: B2 VL with T8P, Y36F, D41G, G42Q, V44P, K45R, D80P, F87Y
notes: Humanized IgG1/kappa antibody; also called V1 HC + V4 LC
Question: What does the source list for B6?
Answer: EC50 [6]: 0.206 µg/mL; EC50 [7]: 0.152 µg/mL; EC50 [8]: 0.0139 µg/mL; Kd [9]: 0.145 nM; koff [9]: 9.91e-05 s⁻¹; kon [9]: 685000 M⁻¹ s⁻¹

B7: mAb-6 (antibody, human IgG1, kappa, V domains shown)
VH: B5 VH with S88A, E89G
VL: B2 VL with T8P, Y36F, D41G, G42Q, V44P, K45R, D80P, F87Y
notes: Humanized IgG1/kappa antibody; also called V4 HC + V4 LC
Question: With B7 as the molecule, how does the EC50 [7] read?
Answer: 2.75 µg/mL

Question: What about the EC50 [8] of the same molecule?
Answer: 0.0104 µg/mL

Question: What about the Kd [9] of the same molecule?
Answer: 0.315 nM

Question: And the koff [9]?
Answer: 0.00022 s⁻¹

Question: And the kon [9]?
Answer: 699000 M⁻¹ s⁻¹

Reference: patent US20230365679A1 (KUNMING SINOWAY NATURAL PHARMACEUTICALS, published 2023)
